# Data taken from the Human Domainome abundance scans (Beltran et al. 2025).
# ± gives the uncertainty stated by the source.
# B1: Glucocorticoid receptor, residues 419 to 494; numbered along this chain, P04150 (parent)
# chain: KLCLVCSDEASGCHYGVLTCGSCKVFFKRAVEGQHNYLCAGRNDCIIDKIRRKNCPACRYRKCLQAGMNLEARKTK
# Variants of: B1
# Test: abundance fitness (aPCA) (normalised: wild type 0, dead -1); higher = more abundant; growth selection in yeast, the domain comes from the species named
# Settings: Homo sapiens
row,Variant,abundance fitness
1,KLCLVCSDEASGCHYGVLTCGSCKVFFKRAVEGQHNYLCAGRNDCIIDKIRRKNCPACRYDKCLQAGMNLEARKTK [R61D],0.016 ± 0.064
2,KLCLVCSDEASGCHYGVLTCGSCKVFFKRAVEGQHNYLCAGRNDCIIDKIRRKNCPACRYAKCLQAGMNLEARKTK [R61A],0.054 ± 0.033
3,KLCLVCSDEASGCHYGVLTCGSCKVFFKRAVEGQHNYLCAGRNDCIIDKIRRKNCPACRYIKCLQAGMNLEARKTK [R61I],-0.083 ± 0.085
4,KLCLVCSDEASGCHYGVLTCGSCKVFFKRAVEGQHNYLCAGRNDCIIDKIRRKNCPACRYGKCLQAGMNLEARKTK [R61G],-0.063 ± 0.031
5,KLCLVCSDEASGCHYGVLTCGSCKVFFKRAVEGQHNYLCAGRNDCIIDKIRRKNCPACRYPKCLQAGMNLEARKTK [R61P],-0.854 ± 0.19
6,KLCLVCSDEASGCHYGVLTCGSCKVFFKRAVEGQHNYLCAGRNDCIIDKIRRKNCPACRYQKCLQAGMNLEARKTK [R61Q],0.101 ± 0.048
7,KLCLVCSDEASGCHYGVLTCGSCKVFFKRAVEGQHNYLCAGRNDCIIDKIRRKNCPACRYHKCLQAGMNLEARKTK [R61H],-0.079 ± 0.077
8,KLCLVCSDEASGCHYGVLTCGSCKVFFKRAVEGQHNYLCAGRNDCIIDKIRRKNCPACRYVKCLQAGMNLEARKTK [R61V],0.064 ± 0.035
9,KLCLVCSDEASGCHYGVLTCGSCKVFFKRAVEGQHNYLCAGRNDCIIDKIRRKNCPACRYCKCLQAGMNLEARKTK [R61C],-0.112 ± 0.058
10,KLCLVCSDEASGCHYGVLTCGSCKVFFKRAVEGQHNYLCAGRNDCIIDKIRRKNCPACRYFKCLQAGMNLEARKTK [R61F],-0.13 ± 0.08
11,KLCLVCSDEASGCHYGVLTCGSCKVFFKRAVEGQHNYLCAGRNDCIIDKIRRKNCPACRYYKCLQAGMNLEARKTK [R61Y],-0.089 ± 0.11
12,KLCLVCSDEASGCHYGVLTCGSCKVFFKRAVEGQHNYLCAGRNDCIIDKIRRKNCPACRYEKCLQAGMNLEARKTK [R61E],0.026 ± 0.046
13,KLCLVCSDEASGCHYGVLTCGSCKVFFKRAVEGQHNYLCAGRNDCIIDKIRRKNCPACRYKKCLQAGMNLEARKTK [R61K],-0.017 ± 0.05
14,KLCLVCSDEASGCHYGVLTCGSCKVFFKRAVEGQHNYLCAGRNDCIIDKIRRKNCPACRYLKCLQAGMNLEARKTK [R61L],0 ± 0.039
15,KLCLVCSDEASGCHYGVLTCGSCKVFFKRAVEGQHNYLCAGRNDCIIDKIRRKNCPACRYSKCLQAGMNLEARKTK [R61S],-0.004 ± 0.038
16,KLCLVCSDEASGCHYGVLTCGSCKVFFKRAVEGQHNYLCAGRNDCIIDKIRRKNCPACRVRKCLQAGMNLEARKTK [Y60V],-0.215 ± 0.037
17,KLCLVCSDEASGCHYGVLTCGSCKVFFKRAVEGQHNYLCAGRNDCIIDKIRRKNCPACRSRKCLQAGMNLEARKTK [Y60S],-0.535 ± 0.06
18,KLCLVCSDEASGCHYGVLTCGSCKVFFKRAVEGQHNYLCAGRNDCIIDKIRRKNCPACRKRKCLQAGMNLEARKTK [Y60K],-0.011 ± 0.054
19,KLCLVCSDEASGCHYGVLTCGSCKVFFKRAVEGQHNYLCAGRNDCIIDKIRRKNCPACRIRKCLQAGMNLEARKTK [Y60I],-0.09 ± 0.078
20,KLCLVCSDEASGCHYGVLTCGSCKVFFKRAVEGQHNYLCAGRNDCIIDKIRRKNCPACRDRKCLQAGMNLEARKTK [Y60D],-0.907 ± 0.17
21,KLCLVCSDEASGCHYGVLTCGSCKVFFKRAVEGQHNYLCAGRNDCIIDKIRRKNCPACRHRKCLQAGMNLEARKTK [Y60H],-0.178 ± 0.11
22,KLCLVCSDEASGCHYGVLTCGSCKVFFKRAVEGQHNYLCAGRNDCIIDKIRRKNCPACRFRKCLQAGMNLEARKTK [Y60F],0.004 ± 0.085
23,KLCLVCSDEASGCHYGVLTCGSCKVFFKRAVEGQHNYLCAGRNDCIIDKIRRKNCPACRPRKCLQAGMNLEARKTK [Y60P],-0.724 ± 0.12
24,KLCLVCSDEASGCHYGVLTCGSCKVFFKRAVEGQHNYLCAGRNDCIIDKIRRKNCPACRCRKCLQAGMNLEARKTK [Y60C],-0.694 ± 0.16

row,Variant,abundance fitness
1,KLCLVCSDEASGCHYGVLTCGSCKVFFKRAVEGQHNYLCAGRNDCIIDKIRRKNCPACRNRKCLQAGMNLEARKTK [Y60N],-0.478 ± 0.13
2,KLCLVCSDEASGCHYGVLTCGSCKVFFKRAVEGQHNYLCAGRNDCIIDKIRRKNCPACRWRKCLQAGMNLEARKTK [Y60W],-0.036 ± 0.041
3,KLCLVCSDEASGCHYGVLTCGSCKVFFKRAVEGQHNYLCAGRNDCIIDKIRRKNCPACRARKCLQAGMNLEARKTK [Y60A],-0.425 ± 0.052
4,KLCLVCSDEASGCHYGVLTCGSCKVFFKRAVEGQHNYLCAGRNDCIIDKIRRKNCPACRMRKCLQAGMNLEARKTK [Y60M],-0.07 ± 0.049
5,KLCLVCSDEASGCHYGVLTCGSCKVFFKRAVEGQHNYLCAGRNDCIIDKIRRKNCPACRGRKCLQAGMNLEARKTK [Y60G],-0.809 ± 0.086
6,KLCLVCSDEASGCHYGVLTCGSCKVFFKRAVEGQHNYLCAGRNDCIIDKIRRKNCPACRLRKCLQAGMNLEARKTK [Y60L],0.002 ± 0.036
7,KLCLVCSDEASGCHYGVLTCGSCKVFFKRAVEGQHNYLCAGRNDCIIDKIRRKNCPMCRYRKCLQAGMNLEARKTK [A57M],-0.587 ± 0.066
8,KLCLVCSDEASGCHYGVLTCGSCKVFFKRAVEGQHNYLCAGRNDCIIDKIRRKNCPVCRYRKCLQAGMNLEARKTK [A57V],-0.656 ± 0.059
9,KLCLVCSDEASGCHYGVLTCGSCKVFFKRAVEGQHNYLCAGRNDCIIDKIRRKNCPWCRYRKCLQAGMNLEARKTK [A57W],-0.669 ± 0.063
10,KLCLVCSDEASGCHYGVLTCGSCKVFFKRAVEGQHNYLCAGRNDCIIDKIRRKNCPTCRYRKCLQAGMNLEARKTK [A57T],-0.571 ± 0.071
11,KLCLVCSDEASGCHYGVLTCGSCKVFFKRAVEGQHNYLCAGRNDCIIDKIRRKNCPSCRYRKCLQAGMNLEARKTK [A57S],-0.02 ± 0.035
12,KLCLVCSDEASGCHYGVLTCGSCKVFFKRAVEGQHNYLCAGRNDCIIDKIRRKNCPPCRYRKCLQAGMNLEARKTK [A57P],-0.247 ± 0.053
13,KLCLVCSDEASGCHYGVLTCGSCKVFFKRAVEGQHNYLCAGRNDCIIDKIRRKNCPNCRYRKCLQAGMNLEARKTK [A57N],-0.266 ± 0.085
14,KLCLVCSDEASGCHYGVLTCGSCKVFFKRAVEGQHNYLCAGRNDCIIDKIRRKNCPQCRYRKCLQAGMNLEARKTK [A57Q],-0.195 ± 0.05
15,KLCLVCSDEASGCHYGVLTCGSCKVFFKRAVEGQHNYLCAGRNDCIIDKIRRKNCPACGYRKCLQAGMNLEARKTK [R59G],-0.825 ± 0.076
16,KLCLVCSDEASGCHYGVLTCGSCKVFFKRAVEGQHNYLCAGRNDCIIDKIRRKNCPACMYRKCLQAGMNLEARKTK [R59M],-0.171 ± 0.054
17,KLCLVCSDEASGCHYGVLTCGSCKVFFKRAVEGQHNYLCAGRNDCIIDKIRRKNCPACAYRKCLQAGMNLEARKTK [R59A],-0.702 ± 0.067
18,KLCLVCSDEASGCHYGVLTCGSCKVFFKRAVEGQHNYLCAGRNDCIIDKIRRKNCPACFYRKCLQAGMNLEARKTK [R59F],-0.513 ± 0.12
19,KLCLVCSDEASGCHYGVLTCGSCKVFFKRAVEGQHNYLCAGRNDCIIDKIRRKNCPACPYRKCLQAGMNLEARKTK [R59P],-0.737 ± 0.11
20,KLCLVCSDEASGCHYGVLTCGSCKVFFKRAVEGQHNYLCAGRNDCIIDKIRRKNCPACLYRKCLQAGMNLEARKTK [R59L],-0.017 ± 0.035
21,KLCLVCSDEASGCHYGVLTCGSCKVFFKRAVEGQHNYLCAGRNDCIIDKIRRKNCPACEYRKCLQAGMNLEARKTK [R59E],-0.583 ± 0.067
22,KLCLVCSDEASGCHYGVLTCGSCKVFFKRAVEGQHNYLCAGRNDCIIDKIRRKNCPACQYRKCLQAGMNLEARKTK [R59Q],-0.259 ± 0.048
23,KLCLVCSDEASGCHYGVLTCGSCKVFFKRAVEGQHNYLCAGRNDCIIDKIRRKNCPACKYRKCLQAGMNLEARKTK [R59K],-0.52 ± 0.078
24,KLCLVCSDEASGCHYGVLTCGSCKVFFKRAVEGQHNYLCAGRNDCIIDKIRRKNCPACSYRKCLQAGMNLEARKTK [R59S],-0.81 ± 0.1

row,Variant,abundance fitness
1,KLCLVCSDEASGCHYGVLTCGSCKVFFKRAVEGQHNYLCAGRNDCIIDKIRRKNCPACNYRKCLQAGMNLEARKTK [R59N],-0.817 ± 0.23
2,KLCLVCSDEASGCHYGVLTCGSCKVFFKRAVEGQHNYLCAGRNDCIIDKIRRKNCPACVYRKCLQAGMNLEARKTK [R59V],-0.783 ± 0.082
3,KLCLVCSDEASGCHYGVLTCGSCKVFFKRAVEGQHNYLCAGRNDCIIDKIRRKNCPACYYRKCLQAGMNLEARKTK [R59Y],-0.087 ± 0.074
4,KLCLVCSDEASGCHYGVLTCGSCKVFFKRAVEGQHNYLCAGRNDCIIDKIRRKNCPACIYRKCLQAGMNLEARKTK [R59I],-0.694 ± 0.18
5,KLCLVCSDEASGCHYGVLTCGSCKVFFKRAVEGQHNYLCAGRNDCIIDKIRRKNCPACDYRKCLQAGMNLEARKTK [R59D],-0.609 ± 0.21
6,KLCLVCSDEASGCHYGVLTCGSCKVFFKRAVEGQHNYLCAGRNDCIIDKIRRKNCPACHYRKCLQAGMNLEARKTK [R59H],0.014 ± 0.09
7,KLCLVCSDEASGCHYGVLTCGSCKVFFKRAVEGQHNYLCAGRNDCIIDKIRRKNCPACWYRKCLQAGMNLEARKTK [R59W],0.017 ± 0.037
8,KLCLVCSDEASGCHYGVLTCGSCKVFFKRAVEGQHNYLCAGRNDCIIDKIRRKNCPARRYRKCLQAGMNLEARKTK [C58R],-1.04 ± 0.12
9,KLCLVCSDEASGCHYGVLTCGSCKVFFKRAVEGQHNYLCAGRNDCIIDKIRRKNCPAWRYRKCLQAGMNLEARKTK [C58W],-1.08 ± 0.22
10,KLCLVCSDEASGCHYGVLTCGSCKVFFKRAVEGQHNYLCAGRNDCIIDKIRRKNCPAYRYRKCLQAGMNLEARKTK [C58Y],-0.405 ± 0.16
11,KLCLVCSDEASGCHYGVLTCGSCKVFFKRAVEGQHNYLCAGRNDCIIDKIRRKNCPAQRYRKCLQAGMNLEARKTK [C58Q],-0.768 ± 0.13
12,KLCLVCSDEASGCHYGVLTCGSCKVFFKRAVEGQHNYLCAGRNDCIIDKIRRKNCPADRYRKCLQAGMNLEARKTK [C58D],-0.872 ± 0.42
13,KLCLVCSDEASGCHYGVLTCGSCKVFFKRAVEGQHNYLCAGRNDCIIDKIRRKNCPAIRYRKCLQAGMNLEARKTK [C58I],-0.81 ± 0.22
14,KLCLVCSDEASGCHYGVLTCGSCKVFFKRAVEGQHNYLCAGRNDCIIDKIRRKNCPALRYRKCLQAGMNLEARKTK [C58L],-0.789 ± 0.084
15,KLCLVCSDEASGCHYGVLTCGSCKVFFKRAVEGQHNYLCAGRNDCIIDKIRRKNCPAVRYRKCLQAGMNLEARKTK [C58V],-0.903 ± 0.11
16,KLCLVCSDEASGCHYGVLTCGSCKVFFKRAVEGQHNYLCAGRNDCIIDKIRRKNCPAHRYRKCLQAGMNLEARKTK [C58H],-0.701 ± 0.18
17,KLCLVCSDEASGCHYGVLTCGSCKVFFKRAVEGQHNYLCAGRNDCIIDKIRRKNCPAARYRKCLQAGMNLEARKTK [C58A],-0.935 ± 0.12
18,KLCLVCSDEASGCHYGVLTCGSCKVFFKRAVEGQHNYLCAGRNDCIIDKIRRKNCPAKRYRKCLQAGMNLEARKTK [C58K],-1.06 ± 0.37
19,KLCLVCSDEASGCHYGVLTCGSCKVFFKRAVEGQHNYLCAGRNDCIIDKIRRKNCPAERYRKCLQAGMNLEARKTK [C58E],-0.633 ± 0.091
20,KLCLVCSDEASGCHYGVLTCGSCKVFFKRAVEGQHNYLCAGRNDCIIDKIRRKNCPAMRYRKCLQAGMNLEARKTK [C58M],-0.896 ± 0.17
21,KLCLVCSDEASGCHYGVLTCGSCKVFFKRAVEGQHNYLCAGRNDCIIDKIRRKNCPAFRYRKCLQAGMNLEARKTK [C58F],-1 ± 0.3
22,KLCLVCSDEASGCHYGVLTCGSCKVFFKRAVEGQHNYLCAGRNDCIIDKIRRKNCPAPRYRKCLQAGMNLEARKTK [C58P],-0.842 ± 0.13
23,KLCLVCSDEASGCHYGVLTCGSCKVFFKRAVEGQHNYLCAGRNDCIIDKIRRKNCPASRYRKCLQAGMNLEARKTK [C58S],-0.697 ± 0.079
24,KLCLVCSDEASGCHYGVLTCGSCKVFFKRAVEGQHNYLCAGRNDCIIDKIRRKNCPAGRYRKCLQAGMNLEARKTK [C58G],-0.81 ± 0.11
